In publication PMC6625847 (Molecular cell, 2019):
“And” between values parts separate entries of the source, which are not always exact repeats. Equal values may be shown once. Read-outs that look alike come from different tables or passages of the source. Blank lines part the entries; values can stand above or below the molecule they belong to.

Columns and labels:
[1] = biological target: full-length ArcS260D,T278A (rat) (UniProt Q63053); experiment: dynamic light scattering
[2] = biological target: full-length ArcG277D (rat) (UniProt Q63053); experiment: dynamic light scattering
[3] = biological target: full-length ArcK257A (rat) (UniProt Q63053); experiment: dynamic light scattering
Arc (Arg3.1) = Arc (Arg3.1) (UniProt Q63053); experiment: dynamic light scattering of oligomer size; conditions: reference: wild type; sites T278
[4] = biological target: full-length ArcS260D (rat) (UniProt Q63053); experiment: dynamic light scattering
[5] = biological target: full-length ArcQ241A (rat) (UniProt Q63053); experiment: dynamic light scattering
[6] = biological target: full-length ArcS260D,T278D (rat) (UniProt Q63053); experiment: dynamic light scattering
dynamic light scattering [7] = biological target: the molecule itself; experiment: dynamic light scattering
dynamic light scattering [8] = biological target: the molecule itself; experiment: dynamic light scattering; remark: listed apart in the source

Molecule: Arc (Arg3.1) (from UniProt Q63053) T278D
- other: oligomer mass from DLS after 6 min at 30°C (Arc (Arg3.1)): weaker; reference ~2458

Molecule: full-length ArcS260D (from UniProt Q63053 1-396) (natural protein)
- stoichiometry N [4]: 4

Molecule: full-length ArcQ241A (from UniProt Q63053 1-396) (natural protein)
- stoichiometry N [5]: 4

B1: full-length Rn Arc (wild type) (natural protein, rat, UniProt Q63053 1-396, looked up)
chain: MELDHMTTGGLHAYPAPRGGPAAKPNVILQIGKCRAEMLEHVRRTHRHLLTEVSKQVERELKGLHRSVGKLENNLDGYVPTGDSQRWKKSIKACLCRCQETIANLERWVKREMHVWREVFYRLERWADRLESMGGKYPVGSEPARHTVSVGVGGPEPYCQEADGYDYTVSPYAITPPPAAGELPEQESVGAQQYQSWVPGEDGQPSPGVDTQIFEDPREFLSHLEEYLRQVGGSEEYWLSQIQNHMNGPAKKWWEFKQGSVKNWVEFKKEFLQYSEGTLSREAIQRELDLPQKQGEPLDQFLWRKRDLYQTLYVDAEEEEIIQYVVGTLQPKFKRFLRHPLPKTLEQLIQRGMEVQDGLEQAAEPSVTPLPTEDETEALTPALTSESVASDRTQPE
- stoichiometry N (dynamic light scattering [7]): ~32 and ~48
- stoichiometry N (dynamic light scattering [8]): 4

B2: full-length ArcT278D (natural protein, rat, UniProt Q63053 1-396, looked up)
chain: MELDHMTTGGLHAYPAPRGGPAAKPNVILQIGKCRAEMLEHVRRTHRHLLTEVSKQVERELKGLHRSVGKLENNLDGYVPTGDSQRWKKSIKACLCRCQETIANLERWVKREMHVWREVFYRLERWADRLESMGGKYPVGSEPARHTVSVGVGGPEPYCQEADGYDYTVSPYAITPPPAAGELPEQESVGAQQYQSWVPGEDGQPSPGVDTQIFEDPREFLSHLEEYLRQVGGSEEYWLSQIQNHMNGPAKKWWEFKQGSVKNWVEFKKEFLQYSEGDLSREAIQRELDLPQKQGEPLDQFLWRKRDLYQTLYVDAEEEEIIQYVVGTLQPKFKRFLRHPLPKTLEQLIQRGMEVQDGLEQAAEPSVTPLPTEDETEALTPALTSESVASDRTQPE
- stoichiometry N (dynamic light scattering [7]): ~24
- stoichiometry N (dynamic light scattering [8]): 4

B3: full-length ArcS260A,T278A (natural protein, rat, UniProt Q63053 1-396, looked up)
chain: MELDHMTTGGLHAYPAPRGGPAAKPNVILQIGKCRAEMLEHVRRTHRHLLTEVSKQVERELKGLHRSVGKLENNLDGYVPTGDSQRWKKSIKACLCRCQETIANLERWVKREMHVWREVFYRLERWADRLESMGGKYPVGSEPARHTVSVGVGGPEPYCQEADGYDYTVSPYAITPPPAAGELPEQESVGAQQYQSWVPGEDGQPSPGVDTQIFEDPREFLSHLEEYLRQVGGSEEYWLSQIQNHMNGPAKKWWEFKQGAVKNWVEFKKEFLQYSEGALSREAIQRELDLPQKQGEPLDQFLWRKRDLYQTLYVDAEEEEIIQYVVGTLQPKFKRFLRHPLPKTLEQLIQRGMEVQDGLEQAAEPSVTPLPTEDETEALTPALTSESVASDRTQPE
- binding result (dynamic light scattering [7]): binds

B4: full-length ArcS260A (natural protein, rat, UniProt Q63053 1-396, looked up)
chain: MELDHMTTGGLHAYPAPRGGPAAKPNVILQIGKCRAEMLEHVRRTHRHLLTEVSKQVERELKGLHRSVGKLENNLDGYVPTGDSQRWKKSIKACLCRCQETIANLERWVKREMHVWREVFYRLERWADRLESMGGKYPVGSEPARHTVSVGVGGPEPYCQEADGYDYTVSPYAITPPPAAGELPEQESVGAQQYQSWVPGEDGQPSPGVDTQIFEDPREFLSHLEEYLRQVGGSEEYWLSQIQNHMNGPAKKWWEFKQGAVKNWVEFKKEFLQYSEGTLSREAIQRELDLPQKQGEPLDQFLWRKRDLYQTLYVDAEEEEIIQYVVGTLQPKFKRFLRHPLPKTLEQLIQRGMEVQDGLEQAAEPSVTPLPTEDETEALTPALTSESVASDRTQPE
- binding result (dynamic light scattering [7]): binds

Other lines, results leading:

- stoichiometry N [1]: 4
Molecule: full-length ArcS260D,T278A (from UniProt Q63053 1-396) (natural protein)

- stoichiometry N [2]: 4
Molecule: full-length ArcG277D (from UniProt Q63053 1-396) (natural protein)

- stoichiometry N [3]: 4
Molecule: full-length ArcK257A (from UniProt Q63053 1-396) (natural protein)

- stoichiometry N [6]: 4
Molecule: full-length ArcS260D,T278D (from UniProt Q63053 1-396) (natural protein)
